The series addresses PDGF-AB (Homo sapiens) (UniProt P04085+P01127). Kind of series: filter.

PDGF-AB (Homo sapiens), sequence (P01127 82-190, chain 2 of 2, other chains not shown): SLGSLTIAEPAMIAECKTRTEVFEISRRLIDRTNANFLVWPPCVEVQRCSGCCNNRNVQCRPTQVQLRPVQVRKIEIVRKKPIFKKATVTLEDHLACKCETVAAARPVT

For the setting “initial random library”, “ATCCGCCTGATTAGCGATACTNNNNNNNNNNNNNNNNNNNNNNNNNNNNNNNNNNNNNNNNACTTGAGCAAAATCACCTGCAGGGG [random ssDNA library]” had a binding signal (fold weaker than round 12 pool) of 700.

“ATCCGCCTGATTAGCGATACTNNNNNNNNNNNNNNNNNNNNNNNNNNNNNNNNNNNNNNNNACTTGAGCAAAATCACCTGCAGGGG [ssDNA SELEX round 12 pool]”: the dissociation constant (Kd) – broadly, the concentration at which binding is half-saturated – (round 12 enriched pool, data not shown) was determined as 0.05 nM.

The values are drawn from patent US5723594.
